From article PMC2248580

Molecular target: human activated blood coagulation factor X (FXa) (human)
Test: SPR; […]; 37°C; HBS (10 mM Hepes, 150 mM NaCl, 5 mM CaCl2, 0.005% P20, pH 7.4); Langmuir fit; […]

Substance	Kd [nM]	koff [s⁻¹]	kon [M⁻¹ s⁻¹]
bAhp, the basic PLA2 from Gloydious (Agkistrodon) halys pallas venom (from UniProt O42187 17-138) (enzyme)	400	0.016	40000
CbII, the basic subunit of the CbI-CbII complex (β-neurotoxin) from Pseudocerastes fieldi venom (enzyme)	20	0.0085	420000
